In publication PMC4624963, “Enzymatic Characterization of Recombinant Food Vacuole Plasmepsin 4 from the Rodent Malaria Parasite Plasmodium berghei” (PLoS ONE, 2015):
Where no end group is shown, it is not given here. [ ]: non-standard residue; d: D form. Nle = CCCC[C@H](N)C(=O)O

Key:
Conditions in all cases: both partners purified
[1] = biological target: T1, mature plasmepsin 4 of Plasmodium berghei (PbPM4), auto-matured from semi-proPbPM4 (Plasmodium berghei ANKA); test: enzyme inhibition kinetics (Ki of competitive inhibition); initial cleavage velocities of a chromogenic peptide substrate at varied inhibitor concentration, spectrophotometric; proPbPM4 pre-incubated in 100 mM sodium citrate pH 5.0, 37°C, 5 min; tight-binding or non-tight-binding competitive fit
T1 construct: also called mature PbPM4; FV plasmepsin 4; source: converted to mature enzyme by 5 min pre-incubation in sodium citrate pH 5.0 at 37°C

[2] = biological target: T2, plasmepsin 2 from Plasmodium falciparum (Plasmodium falciparum, UniProt P46925 125-453); test: enzyme inhibition kinetics (Ki of competitive inhibition); initial cleavage velocities of a chromogenic peptide substrate at varied inhibitor concentration; plasmepsins pre-incubated in 100 mM sodium formate pH 4.5, 37°C, 5 min to convert zymogen to mature enzyme
T2 construct: also called PfPM2; source: zymogen converted to mature enzyme at pH 4.5, 37°C, 5 min

[3] = biological target: T3, plasmepsin 4 from Plasmodium falciparum (Plasmodium falciparum, UniProt Q8IM16 122-449); test: as above
T3 construct: also called PfPM4; source: zymogen converted to mature enzyme at pH 4.5, 37°C, 5 min

[4] = biological target: T4, plasmepsin 1 from Plasmodium falciparum (Plasmodium falciparum, UniProt P39898 124-452); test: enzyme inhibition kinetics (Ki of competitive inhibition); initial cleavage velocities of a chromogenic peptide substrate at varied inhibitor concentration; mature PfPM1 pre-incubated in 100 mM sodium citrate pH 5.5, 37°C, 3 min
T4 construct: also called PfPM1

KP[Nle]S[Nle]LQI (also: reduced amide Ψ[CH2-NH] between Nle5 and Leu6) [compound 3 (KPnLSnLΨLQI), peptidomimetic inhibitor designed for PfPM2] was tested, and the Ki [1] was 375 ± 54 nM.

B1: compound 1 (KPYEFΨRQF), peptidomimetic inhibitor designed for PbPM4 (peptide)
peptide: KPYEFRQF
modifications: not fully specified (residue 5); printed as KPYEFΨRQF; also: Ψ pseudo-peptide bond between F5 and R6
notes: source: synthetic peptide
For B1, the Ki [2] was 35 µM, the Ki [3] was 190 ± 19 nM and the Ki [4] was greater than 100 µM.
